Results as given in PMC9352680, “A comprehensive thermodynamic model for RNA binding by the Saccharomyces cerevisiae Pumilio protein PUF4”.

Target: T1, PUF4 RNA-binding domain (Saccharomyces cerevisiae, UniProt P25339 537-888)
T1 sequence: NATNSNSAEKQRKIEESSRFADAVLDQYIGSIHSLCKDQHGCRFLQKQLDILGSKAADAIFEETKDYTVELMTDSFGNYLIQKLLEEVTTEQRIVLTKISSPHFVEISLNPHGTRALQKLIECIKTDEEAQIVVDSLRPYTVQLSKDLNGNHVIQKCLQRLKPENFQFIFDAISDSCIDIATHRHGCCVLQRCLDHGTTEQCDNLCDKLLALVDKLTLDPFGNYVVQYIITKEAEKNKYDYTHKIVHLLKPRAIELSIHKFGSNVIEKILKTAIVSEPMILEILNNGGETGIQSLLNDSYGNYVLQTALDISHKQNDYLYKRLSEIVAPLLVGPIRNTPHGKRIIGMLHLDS
Experiment: Mg; RNA-MaP; 20 mM Na-HEPES pH 7.4, 30 mM KOAc, 0.75 mM MgCl2, 0.1% Tween-20, 5% glycerol, 0.1 mg/mL BSA, 2 mM DTT; 25 C; 0.0125-409.6 nM protein
Details: tags: N-His6-TEV cleaved; C-SNAP kept, Cy3B-labelled; label: tethered on chip by stalled RNA polymerase

Binder | Kd [nM]
ACAAACCUUAUAUAUUAAUACAAAC (ssRNA) [Id_ii_S3_P4E.3_K4.2_C4.2_H4.2_A4.1_F4.1_T4.2_[G10A]] | 14
ACAAACGUACACUAUUAGCACAAAC (ssRNA) [Id_ii_S3_P4E.4_K4.3_C4.2_[C-2G]_H4.3_A4.1_F4.1_T4.2_[T11C]] | 70.4
ACAAACCUUAUAUAUUAACACAAAC (ssRNA) [Id_ii_S3_P4E.3_K4.2_C4.2_H4.2_A4.1_F4.1_T4.2_[G10A]_[T11C]] | 21.6
ACAAACAGUAUAUAUUAACACAAAC (ssRNA) [Id_ii_S3_P4E.3_K4.2_C4.2_[C-2A]_[T-1G]_H4.2_A4.1_F4.1_T4.2_[G10A]_[T11C]] | 38.8
ACAAACUAUAUAUAUUACGACAAAC (ssRNA) [Id_ii_S3_P4E.3_K4.2_C4.2_[C-2T]_[T-1A]_H4.2_A4.1_F4.1_T4.2_[G10C]_[T11G]] | 27.8
ACAAACACUAUAUAUUAACACAAAC (ssRNA) [Id_ii_S3_P4E.3_K4.2_C4.2_[C-2A]_[T-1C]_H4.2_A4.1_F4.1_T4.2_[G10A]_[T11C]] | 29.6
ACAAACCUUAUAUAUUAGUACAAAC (ssRNA) [If_S3_P4E.3_K4.2_C4.2_H4.2_A4.1_F4.1_T4.2] | 3.71
UCUCUUUGUAUUGUUCUCUCUU (ssRNA) [Ib_S1_P5E.1_K5.1_C5.1_H5.1_A5.1_[A7G]_F5.1_[A10C]_T5.1] | 45.8
UCUCUUUGUAUAAUUCUCUCUU (ssRNA) [Ib_S1_P5E.1_K5.1_C5.1_H5.1_A5.1_[T6A]_F5.1_[A10C]_T5.1] | 10.6
ACAAACAGUAUAUAUUAGGACAAAC (ssRNA) [Id_ii_S3_P4E.3_K4.2_C4.2_[C-2A]_[T-1G]_H4.2_A4.1_F4.1_T4.2_[T11G]] | 20.3
ACAAACAAUAUAUAUUACGACAAAC (ssRNA) [Id_ii_S3_P4E.3_K4.2_C4.2_[C-2A]_[T-1A]_H4.2_A4.1_F4.1_T4.2_[G10C]_[T11G]] | 43.6
ACAAACCAUAUAUAUUACCACAAAC (ssRNA) [Id_ii_S3_P4E.3_K4.2_C4.2_[T-1A]_H4.2_A4.1_F4.1_T4.2_[G10C]_[T11C]] | 32.1
ACAAACUCUAUAUAUUAUAACAAAC (ssRNA) [Id_ii_S3_P4E.3_K4.2_C4.2_[C-2T]_[T-1C]_H4.2_A4.1_F4.1_T4.2_[G10T]_[T11A]] | 15.5
ACAAACCCUAUAUAUUAACACAAAC (ssRNA) [Id_ii_S3_P4E.3_K4.2_C4.2_[T-1C]_H4.2_A4.1_F4.1_T4.2_[G10A]_[T11C]] | 25.9
ACAAACCUUAUAUAUUACUACAAAC (ssRNA) [Id_ii_S3_P4E.3_K4.2_C4.2_H4.2_A4.1_F4.1_T4.2_[G10C]] | 13.3
ACAAACGUUAUAUAUUAUUACAAAC (ssRNA) [Id_ii_S3_P4E.3_K4.2_C4.2_[C-2G]_H4.2_A4.1_F4.1_T4.2_[G10T]] | 31.6
ACAAACGUACACUAUUAUCACAAAC (ssRNA) [Id_ii_S3_P4E.4_K4.3_C4.2_[C-2G]_H4.3_A4.1_F4.1_T4.2_[G10T]_[T11C]] | 39.9
ACAAACAGUAUAUAUUAGAACAAAC (ssRNA) [Id_ii_S3_P4E.3_K4.2_C4.2_[C-2A]_[T-1G]_H4.2_A4.1_F4.1_T4.2_[T11A]] | 11.3
ACAAACGUUAUAUAUUAUCACAAAC (ssRNA) [Id_ii_S3_P4E.3_K4.2_C4.2_[C-2G]_H4.2_A4.1_F4.1_T4.2_[G10T]_[T11C]] | 42.4
ACAAACGUUAUAUAUUACUACAAAC (ssRNA) [Id_ii_S3_P4E.3_K4.2_C4.2_[C-2G]_H4.2_A4.1_F4.1_T4.2_[G10C]] | 58
UCUCUUUGUAUUUUUGUCUCUU (ssRNA) [Ib_S1_P5E.1_K5.1_C5.1_H5.1_A5.1_[A7T]_F5.1_[A10G]_T5.1] | 13.7

Binder | Kd [nM]
ACAAACUUUAUAUAUUAUCACAAAC (ssRNA) [Id_ii_S3_P4E.3_K4.2_C4.2_[C-2T]_H4.2_A4.1_F4.1_T4.2_[G10T]_[T11C]] | 16.5
ACAAACCCUAUAUAUUACGACAAAC (ssRNA) [Id_ii_S3_P4E.3_K4.2_C4.2_[T-1C]_H4.2_A4.1_F4.1_T4.2_[G10C]_[T11G]] | 16.6
UCUCUUUGUAUCAUUUUCUCUU (ssRNA) [Ib_S1_P5E.1_K5.1_C5.1_H5.1_A5.1_[T6C]_F5.1_[A10T]_T5.1] | 7.85
ACAAACUAUAUAUAUUAACACAAAC (ssRNA) [Id_ii_S3_P4E.3_K4.2_C4.2_[C-2T]_[T-1A]_H4.2_A4.1_F4.1_T4.2_[G10A]_[T11C]] | 32.9
ACAAACUUUAUAUAUUAACACAAAC (ssRNA) [Id_ii_S3_P4E.3_K4.2_C4.2_[C-2T]_H4.2_A4.1_F4.1_T4.2_[G10A]_[T11C]] | 29.5
ACAAACGCACACUAUUAGAACAAAC (ssRNA) [Id_ii_S3_P4E.4_K4.3_C4.2_[C-2G]_[T-1C]_H4.3_A4.1_F4.1_T4.2_[T11A]] | > 2300
ACAAACCCUAUAUAUUACUACAAAC (ssRNA) [Id_ii_S3_P4E.3_K4.2_C4.2_[T-1C]_H4.2_A4.1_F4.1_T4.2_[G10C]] | 18.4
ACAAACAAUAUAUAUUAAAACAAAC (ssRNA) [Id_ii_S3_P4E.3_K4.2_C4.2_[C-2A]_[T-1A]_H4.2_A4.1_F4.1_T4.2_[G10A]_[T11A]] | 108
ACAAACCCUAUAUAUUAAUACAAAC (ssRNA) [Id_ii_S3_P4E.3_K4.2_C4.2_[T-1C]_H4.2_A4.1_F4.1_T4.2_[G10A]] | 14
ACAAACACUAUAUAUUACUACAAAC (ssRNA) [Id_ii_S3_P4E.3_K4.2_C4.2_[C-2A]_[T-1C]_H4.2_A4.1_F4.1_T4.2_[G10C]] | 17.6
ACAAACGUACACUAUUAACACAAAC (ssRNA) [Id_ii_S3_P4E.4_K4.3_C4.2_[C-2G]_H4.3_A4.1_F4.1_T4.2_[G10A]_[T11C]] | 39.8
ACAAACUGACACUAUUACGACAAAC (ssRNA) [Id_ii_S3_P4E.4_K4.3_C4.2_[C-2T]_[T-1G]_H4.3_A4.1_F4.1_T4.2_[G10C]_[T11G]] | > 2300
UCUCUUUGUAUUCUUGUCUCUU (ssRNA) [Ib_S1_P5E.1_K5.1_C5.1_H5.1_A5.1_[A7C]_F5.1_[A10G]_T5.1] | 20.4
ACAAACAAUAUAUAUUAGCACAAAC (ssRNA) [Id_ii_S3_P4E.3_K4.2_C4.2_[C-2A]_[T-1A]_H4.2_A4.1_F4.1_T4.2_[T11C]] | 11.9
ACAAACGAUAUAUAUUAAUACAAAC (ssRNA) [Id_ii_S3_P4E.3_K4.2_C4.2_[C-2G]_[T-1A]_H4.2_A4.1_F4.1_T4.2_[G10A]] | 40.7
ACAAACGAUAUAUAUUAUGACAAAC (ssRNA) [Id_ii_S3_P4E.3_K4.2_C4.2_[C-2G]_[T-1A]_H4.2_A4.1_F4.1_T4.2_[G10T]_[T11G]] | 48.6
ACAAACACUAUAUAUUAUGACAAAC (ssRNA) [Id_ii_S3_P4E.3_K4.2_C4.2_[C-2A]_[T-1C]_H4.2_A4.1_F4.1_T4.2_[G10T]_[T11G]] | 16.6
ACAAACUUUAUAUAUUACGACAAAC (ssRNA) [Id_ii_S3_P4E.3_K4.2_C4.2_[C-2T]_H4.2_A4.1_F4.1_T4.2_[G10C]_[T11G]] | 19.4
ACAAACUCUAUAUAUUAUGACAAAC (ssRNA) [Id_ii_S3_P4E.3_K4.2_C4.2_[C-2T]_[T-1C]_H4.2_A4.1_F4.1_T4.2_[G10T]_[T11G]] | 14.5
ACAAACAAUAUAUAUUACUACAAAC (ssRNA) [Id_ii_S3_P4E.3_K4.2_C4.2_[C-2A]_[T-1A]_H4.2_A4.1_F4.1_T4.2_[G10C]] | 28.2
ACAAACAUUAUAUAUUACUACAAAC (ssRNA) [Id_ii_S3_P4E.3_K4.2_C4.2_[C-2A]_H4.2_A4.1_F4.1_T4.2_[G10C]] | 21.1

Binder | Kd [nM]
ACAAACGAUAUAUAUUAACACAAAC (ssRNA) [Id_ii_S3_P4E.3_K4.2_C4.2_[C-2G]_[T-1A]_H4.2_A4.1_F4.1_T4.2_[G10A]_[T11C]] | 52.9
ACAAACAUUAUAUAUUACAACAAAC (ssRNA) [Id_ii_S3_P4E.3_K4.2_C4.2_[C-2A]_H4.2_A4.1_F4.1_T4.2_[G10C]_[T11A]] | 27.7
ACAAACUUUAUAUAUUAUAACAAAC (ssRNA) [Id_ii_S3_P4E.3_K4.2_C4.2_[C-2T]_H4.2_A4.1_F4.1_T4.2_[G10T]_[T11A]] | 18.1
ACAAACACUAUAUAUUACCACAAAC (ssRNA) [Id_ii_S3_P4E.3_K4.2_C4.2_[C-2A]_[T-1C]_H4.2_A4.1_F4.1_T4.2_[G10C]_[T11C]] | 33.5
ACAAACAUUAUAUAUUAUCACAAAC (ssRNA) [Id_ii_S3_P4E.3_K4.2_C4.2_[C-2A]_H4.2_A4.1_F4.1_T4.2_[G10T]_[T11C]] | 19.4
ACAAACGCACACUAUUACUACAAAC (ssRNA) [Id_ii_S3_P4E.4_K4.3_C4.2_[C-2G]_[T-1C]_H4.3_A4.1_F4.1_T4.2_[G10C]] | > 2300
ACAAACACUAUAUAUUAUAACAAAC (ssRNA) [Id_ii_S3_P4E.3_K4.2_C4.2_[C-2A]_[T-1C]_H4.2_A4.1_F4.1_T4.2_[G10T]_[T11A]] | 20.5
ACAAACGAUAUAUAUUAAAACAAAC (ssRNA) [Id_ii_S3_P4E.3_K4.2_C4.2_[C-2G]_[T-1A]_H4.2_A4.1_F4.1_T4.2_[G10A]_[T11A]] | 74.6
UCUCUUUGUACUAUUAUCUCUU (ssRNA) [Ie_S1_P4E.1_K4.1_C4.1_H4.1_[+4C]_A4.1_F4.1_T4.1] | 4.49
ACAAACAAUAUAUAUUAUCACAAAC (ssRNA) [Id_ii_S3_P4E.3_K4.2_C4.2_[C-2A]_[T-1A]_H4.2_A4.1_F4.1_T4.2_[G10T]_[T11C]] | 70.9
ACAAACUCUAUAUAUUAUCACAAAC (ssRNA) [Id_ii_S3_P4E.3_K4.2_C4.2_[C-2T]_[T-1C]_H4.2_A4.1_F4.1_T4.2_[G10T]_[T11C]] | 16.3
ACAAACAGUAUAUAUUAUCACAAAC (ssRNA) [Id_ii_S3_P4E.3_K4.2_C4.2_[C-2A]_[T-1G]_H4.2_A4.1_F4.1_T4.2_[G10T]_[T11C]] | 25.5
ACAAACGAUAUAUAUUAAGACAAAC (ssRNA) [Id_ii_S3_P4E.3_K4.2_C4.2_[C-2G]_[T-1A]_H4.2_A4.1_F4.1_T4.2_[G10A]_[T11G]] | 76.8
ACAAACACUAUAUAUUAUCACAAAC (ssRNA) [Id_ii_S3_P4E.3_K4.2_C4.2_[C-2A]_[T-1C]_H4.2_A4.1_F4.1_T4.2_[G10T]_[T11C]] | 17.7
UCUCUUUGUAUGAUUUUCUCUU (ssRNA) [Ib_S1_P5E.1_K5.1_C5.1_H5.1_A5.1_[T6G]_F5.1_[A10T]_T5.1] | 39.5
ACAAACAUUAUAUAUUACGACAAAC (ssRNA) [Id_ii_S3_P4E.3_K4.2_C4.2_[C-2A]_H4.2_A4.1_F4.1_T4.2_[G10C]_[T11G]] | 21.4
ACAAACACUAUAUAUUAAAACAAAC (ssRNA) [Id_ii_S3_P4E.3_K4.2_C4.2_[C-2A]_[T-1C]_H4.2_A4.1_F4.1_T4.2_[G10A]_[T11A]] | 34
ACAAACCCUAUAUAUUAUUACAAAC (ssRNA) [Id_ii_S3_P4E.3_K4.2_C4.2_[T-1C]_H4.2_A4.1_F4.1_T4.2_[G10T]] | 13.3
ACAAACAUUAUAUAUUAGAACAAAC (ssRNA) [Id_ii_S3_P4E.3_K4.2_C4.2_[C-2A]_H4.2_A4.1_F4.1_T4.2_[T11A]] | 12.8
ACAAACGAUAUAUAUUAUAACAAAC (ssRNA) [Id_ii_S3_P4E.3_K4.2_C4.2_[C-2G]_[T-1A]_H4.2_A4.1_F4.1_T4.2_[G10T]_[T11A]] | 41.7
